PMC3752401

How the values were obtained:
[1] = molecular target: H3K9 core mononucleosome; assay: native gel or EMSA
[2] = molecular target: H3Kc9me3 core mononucleosome; assay: native gel or EMSA
[3] = molecular target: H3Kc9me3 core mononucleosome; assay: fluorescence polarisation

Suv39/Clr4 (full length wild-type), sequence (O60016 whole entry): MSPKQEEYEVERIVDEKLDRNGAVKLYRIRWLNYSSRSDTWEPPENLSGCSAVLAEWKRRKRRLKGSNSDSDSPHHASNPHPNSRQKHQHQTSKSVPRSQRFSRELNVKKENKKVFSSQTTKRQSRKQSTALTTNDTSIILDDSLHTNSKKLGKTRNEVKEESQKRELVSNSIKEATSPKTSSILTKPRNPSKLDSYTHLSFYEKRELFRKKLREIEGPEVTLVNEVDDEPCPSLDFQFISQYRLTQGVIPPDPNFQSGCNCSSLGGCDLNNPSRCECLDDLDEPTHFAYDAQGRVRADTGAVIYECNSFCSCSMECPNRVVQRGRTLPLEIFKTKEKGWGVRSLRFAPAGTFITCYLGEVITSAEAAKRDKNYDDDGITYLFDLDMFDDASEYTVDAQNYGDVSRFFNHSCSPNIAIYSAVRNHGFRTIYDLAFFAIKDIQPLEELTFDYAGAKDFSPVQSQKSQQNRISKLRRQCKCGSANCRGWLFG

- K1/2 [1]: 1.8 µM
- K1/2 [2]: 1.5 µM
- fold sensitivity of the FP increase to the H3Kc9me3 mark over the H3K9 control [3]: > 25 fold
Substance: Suv39/Clr4 (full length wild-type) (from UniProt O60016 1-490) (enzyme)
